Data reported in patent US20120178908A1 (Novo Nordisk, published 2012).
* marks the point of attachment. Biotin = O=C1N[C@H]2[C@H](CS[C@H]2CCCCC(=O)*)N1; AEEA = NCCOCCOCC(=O)O

What was measured:
[1] = target: T1, TLT1 (human TLT-1, reagent of the SPR studies, source NN) (human, UniProt Q86YW5 16-162, limits assumed); assay: SPR (Biacore), mAb captured via anti-human Fc mAb, TLT1 as analyte
T1 sequence: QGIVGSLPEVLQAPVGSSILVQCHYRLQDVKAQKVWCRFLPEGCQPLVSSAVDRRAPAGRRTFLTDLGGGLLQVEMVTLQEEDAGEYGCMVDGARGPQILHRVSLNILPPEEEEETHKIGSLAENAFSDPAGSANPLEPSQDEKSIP
Experimental: The mAbs of interest were either immobilized directly to a CM5 chip or by capture via a human Fc capture mAb immobilized to a CM5 chip.
Capture via human Fc mAb: Human Fc mAb was immobilised to approx 10.000 RU. The mAb of interest was added (approx 100 nM). Two-fold dilutions of TLT1 from 200 nM to 0.2 nM were tested. Running and dilution buffer: 10 mM HEPES, 150 mM, 0.005% p20, pH 7.4. Regeneration was obtained in 3 M MgCl₂

[2] = target: T2, biotinylated 16mer hTLT-1 stalk peptide 40 (SMILES …); assay: peptide-walk ELISA, biotin-peptide on streptavidin plate, triple determination
T2 construct: also called well D 4
T2 peptide: {Biotin-AEEA}-THKIGSLAENAFSDPA-NH2
Experimental: (§1) Epitope mapping by peptide walk. The peptide walking ELISA defined the minimal binding region of the peptide. This was established by coating biotinylated peptides with one residue frameshift in the stalk region of TLT-1 in streptavidin plates followed by binding of the antibody of interest (mAb 0061). A secondary antibody was added for detection and binding was measured at 450 nm. Positive control: binding to biotinylated TLT-1.
(§2) 1) 20mer peptide mapping with one residue frameshift (20,1) (see materials) 2) 16mer peptide mapping with one residue frameshift (16,1) (see materials) [0687] 1. Plate was prre-washed 3× with 250 μl wash buffer [0688] 2. 100 μl Biotinylated peptide-solution was added (from Masterplate 10000× diluted, one peptide pr well) [0689] 3. Incubated at RT for 1 hour or +5° C. over night [0690] 4. Washed 3× with wash buffer [0691] 5. 100 μl Primary antibody was added (dilution see above) [0692] 6. Incubated at RT for 1 hour [0693] 7. Washed 3× with wash buffer [0694] 8. 100 μl Secondary antibody was added (dilution see above) [0695] 9. Incubated at RT for 1 hour [0696] 10. Washed 3× with wash buffer [0697] 11. 100 μl Substrate/Develop buffer was added (Reaction time 3 min) [0698] 12. 100 μl 2M H3PO4 was added [0699] 13. Endpoint was read at 450 nm

[3] = target: T3, biotinylated 16mer hTLT-1 stalk peptide 38 (SMILES …); assay: as above
T3 construct: also called well D 2
T3 peptide: {Biotin-AEEA}-EETHKIGSLAENAFSD-NH2
Experimental: as §1, §2

[4] = target: T4, biotinylated 20mer TLT-1 stalk peptide 16 (N-terminal biotin via 8-amino-3,6-dioxaoctanoic acid (bio-Oeg)); assay: as above
T4 construct: also called well B 4
T4 peptide: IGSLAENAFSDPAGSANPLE
Experimental: as §1, §2

[5] = target: T5, biotinylated 20mer TLT-1 stalk peptide 5 (N-terminal biotin via 8-amino-3,6-dioxaoctanoic acid (bio-Oeg)); assay: as above
T5 construct: also called well A 5
T5 peptide: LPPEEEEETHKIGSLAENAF
Experimental: as §1, §2

[6] = target: T6, biotinylated 20mer TLT-1 stalk peptide 9 (N-terminal biotin via 8-amino-3,6-dioxaoctanoic acid (bio-Oeg)); assay: as above
T6 construct: also called well A 9
T6 peptide: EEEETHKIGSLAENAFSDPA
Experimental: as §1, §2

[7] = target: T7, biotinylated 20mer TLT-1 stalk peptide 12 (N-terminal biotin via 8-amino-3,6-dioxaoctanoic acid (bio-Oeg)); assay: as above
T7 construct: also called well A12
T7 peptide: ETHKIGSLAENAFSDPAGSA
Experimental: as §1, §2

[8] = target: T8, biotinylated 16mer hTLT-1 stalk peptide 41 (SMILES …); assay: as above
T8 construct: also called well D 5
T8 peptide: {Biotin-AEEA}-HKIGSLAENAFSDPAG-NH2
Experimental: as §1, §2

[9] = target: T9, biotinylated 20mer TLT-1 stalk peptide 10 (N-terminal biotin via 8-amino-3,6-dioxaoctanoic acid (bio-Oeg)); assay: as above
T9 construct: also called well A10
T9 peptide: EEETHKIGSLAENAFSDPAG
Experimental: as §1, §2

[10] = target: T10, biotinylated 16mer hTLT-1 stalk peptide 42 (SMILES …); assay: as above
T10 construct: also called well D 6
T10 peptide: {Biotin-AEEA}-KIGSLAENAFSDPAGS-NH2
Experimental: as §1, §2

[11] = target: T11, biotinylated 16mer hTLT-1 stalk peptide 39 (SMILES …); assay: as above
T11 construct: also called well D 3
T11 peptide: {Biotin-AEEA}-ETHKIGSLAENAFSDP-NH2
Experimental: as §1, §2

[12] = target: T12, biotinylated 20mer TLT-1 stalk peptide 7 (N-terminal biotin via 8-amino-3,6-dioxaoctanoic acid (bio-Oeg)); assay: as above
T12 construct: also called well A 7
T12 peptide: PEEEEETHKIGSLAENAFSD
Experimental: as §1, §2

[13] = target: T13, biotinylated 16mer hTLT-1 stalk peptide 37 (SMILES …); assay: as above
T13 construct: also called well D 1
T13 peptide: {Biotin-AEEA}-EEETHKIGSLAENAFS-NH2
Experimental: as §1, §2

[14] = target: T14, biotinylated 20mer TLT-1 stalk peptide 8 (N-terminal biotin via 8-amino-3,6-dioxaoctanoic acid (bio-Oeg)); assay: as above
T14 construct: also called well A 8
T14 peptide: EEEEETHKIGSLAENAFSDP
Experimental: as §1, §2

[15] = target: T15, biotinylated 20mer TLT-1 stalk peptide 15 (N-terminal biotin via 8-amino-3,6-dioxaoctanoic acid (bio-Oeg)); assay: as above
T15 construct: also called well B 3
T15 peptide: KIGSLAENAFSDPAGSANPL
Experimental: as §1, §2

[16] = target: T16, biotinylated 20mer TLT-1 stalk peptide 14 (N-terminal biotin via 8-amino-3,6-dioxaoctanoic acid (bio-Oeg)); assay: as above
T16 construct: also called well B 2
T16 peptide: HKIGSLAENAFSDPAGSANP
Experimental: as §1, §2

[17] = target: T17, biotinylated 16mer hTLT-1 stalk peptide 36 (SMILES …); assay: as above
T17 construct: also called well C12
T17 peptide: {Biotin-AEEA}-EEEETHKIGSLAENAF-NH2
Experimental: as §1, §2

B1: mAb 0061 HC2; LC2 (antibody, V domains shown)
VH: EVKLLESGGGLVQPGGSLKLSCAASGFDFSRYWMTWVRQAPGKGLEWIGEINPDSSTINYNPSLKDKFIISRDNAKNTLYLQMSEVRSEDTALYYCASGVFTSWGQGTLVTVSA
VL: DVVMTQTPLSLPVSLGDQASISCRSSQSLVHRNGNTYFHWALQKPGQSPKLLIYKVSNRFSGVPDRFSGSGSGTDFTLKISRVEAEDLGVYFCSQSTHVPYTFGGGTKLEIKR
notes: also called 0197-0000-0061; 0012HC.T60N + 0012LC.C36A
Binder B1 has a Kd [1] of 3.75 nM, a koff [1] of 0.0035 s⁻¹ and a kon [1] of 932000 M⁻¹ s⁻¹. The “absorbance at 450 nm” value [2] was over 3 A450, the “absorbance at 450 nm” value [3] was over 3 A450 and the “absorbance at 450 nm” value [4] was over 3 A450. The “absorbance at 450 nm” value [5] was over 3 A450, the “absorbance at 450 nm” value [6] was over 3 A450 and the “absorbance at 450 nm” value [7] was over 3 A450. The “absorbance at 450 nm” value [8] was over 3 A450, the “absorbance at 450 nm” value [9] was over 3 A450 and the “absorbance at 450 nm” value [10] was over 3 A450. The “absorbance at 450 nm” value [11] was over 3 A450, the “absorbance at 450 nm” value [12] was over 3 A450 and the “absorbance at 450 nm” value [13] was over 3 A450. For the same binder, the “absorbance at 450 nm” value [14] was over 3 A450, the “absorbance at 450 nm” value [15] was over 3 A450 and the “absorbance at 450 nm” value [16] was over 3 A450. For the same binder, the “absorbance at 450 nm” value [17] was over 3 A450.
